Changes are numbered by the printed parent chain. Names may count otherwise.
Legend:
[1] = target: T1, mouse βNGF (R&D Systems, Inc.) (mouse, UniProt P01139 122-241); test: cell-based or functional assay
[2] = target: T1, mouse βNGF (R&D Systems, Inc.); test: method of Example 3 with biotin-labeled mouse βNGF (Example 4)
[3] = target: T2, human βNGF (R&D Systems, Inc.) (human, UniProt P01138 122-241); test: NGF-trkA binding inhibition ELISA and cell assays (Examples 3, 6, 7)
T2 construct: The background says that NGF forms a dimer; also called human NGF; rhNGF
Description: (§1) Inhibitory activity was measured by the following method. The human trkA (R&D Systems, Inc.) was added to a white Maxisorp 384 plate (Nunc) at 60 ng/well and immobilized by being incubated overnight at 4° C. The next day, the plate was washed once with the TBST wash solution, a blocking agent (TBST containing 20% Blocking One (Nacalai Tesque, Inc.)) was then added thereto, and the plate was left to stand at room temperature for an hour. Subsequently, a mixture obtained by mixing the biotin-labeled human βNGF (0.2 μg/ml) prepared as above with the antibody prepared in Example 2 was added to the trkA-immobilized plate having undergone blocking. […] After an hour of incubation at room temperature, the plate was washed three times with the TBST wash solution and then supplemented with APU4 (BioFx) which is a reagent detecting chemiluminescence, and the amount of chemiluminescence was measured by an EnVision counter (PerkinElmer Co., Ltd.).
(§2) The inhibitory activity was measured by the following method. […] By operating the FLIPR, a mixed solution of the antibody obtained in Example 2 and βNGF was added to the plate at 50 μl/well (final NGF concentration of 100 ng/ml), and the change in intracellular Ca²⁺ concentration was measured.

[4] = target: T2, human βNGF (R&D Systems, Inc.); test: Fab fragments evaluated by the tests of Examples 3, 6 and 7
Description: as §1, §2

[5] = target: T2, human βNGF (R&D Systems, Inc.); test: cell-based or functional assay
[6] = target: T2, human βNGF (R&D Systems, Inc.); test: competition ELISA: inhibition of biotin-labeled human βNGF binding to immobilized human trkA (Example 3)
[7] = target: T2, human βNGF (R&D Systems, Inc.); test: isothermal titration calorimetry, human βNGF titrated into antibody in PBS, single site binding model

B1: PEGylated 1-15(N52D)-Fab′ (Fab, V domains shown)
VH: QVQLQQWGAGLLKPSETLSLTCAVYGGSFSGYYWSWVRQPPGKGLEWIGEIDHSGSTNNNPSLKSRVTISVGTSKNQFSLKLSSVTAADTAVYYCSRDGGPESGMGAFDIWGQGTMVTVSS
VL: not shown
modifications: 40 kDa PEG (maleimide, SUNBRIGHT GL2-400MA) on Cys of the carboxyl terminal (C226 based on EU index; Cys at position 230 of SEQ ID NO:10)
[1]
  IC50, inhibition of NGF-induced intracellular Ca2+ increase (method of Example 6): 0.069 mg/L
  neutralizing activity relative to tanezumab (method of Example 6): ~3.3 times

B2: antibody 1-15 (chimeric antibody) (antibody, V domains shown)
VH: B1 VH with D52N
VL: not shown
notes: Heavy chain variable region has an N-glycosylation motif at N52 (Kabat)
[2]
  binding result: binds
[3]
  binding result: binds

B3: Fab fragment of antibody 1-15 (papain digest) (Fab, V domains shown)
VH: B1 VH with D52N
VL: not shown
notes: also called monovalent antibody fragment of 1-15
[4]
  binding result: binds

B4: 1-15(N52D-A)-Fab′-5kPEG (Fab, V domains shown)
VH: B1 VH
VL: not shown
modifications: 5 kDa PEG conjugated by a procedure similar to Example 13 (hinge Cys)
[5]
  IC50, inhibition of NGF-induced intracellular Ca2+ increase (method of Example 6, final NGF concentration 50 ng/ml): 0.03 mg/L

B5: 1-15(N52D-A)-Fab′-10kPEG (Fab, V domains shown)
VH: B1 VH
VL: not shown
modifications: 10 kDa PEG conjugated by a procedure similar to Example 13 (hinge Cys)
[5]
  IC50, inhibition of NGF-induced intracellular Ca2+ increase (method of Example 6, final NGF concentration 50 ng/ml): 0.028 mg/L

B6: tanezumab (antibody, V domains shown)
VH: QVQLQESGPGLVKPSETLSLTCTVSGFSLIGYDLNWIRQPPGKGLEWIGIIWGDGTTDYNSAVKSRVTISKDTSKNQFSLKLSSVTAADTAVYYCARGGYWYATSYYFDYWGQGTLVTVSS
VL: DIQMTQSPSSLSASVGDRVTITCRASQSISNNLNWYQQKPGKAPKLLIYYTSRFHSGVPSRFSGSGSGTDFTFTISSLQPEDIATYYCQQEHTLPYTFGQGTKLEIKR
[5]
  IC50, inhibition of NGF-induced intracellular Ca2+ increase (method of Example 6): 0.17 mg/L
[1]
  IC50, inhibition of NGF-induced intracellular Ca2+ increase (method of Example 6): 0.23 mg/L
[6]
  IC50: 0.41 mg/L
[7]
  -TΔS: -24 kJ/mol
  Kd: 0.0204 µM
  ΔG: -43.9 kJ/mol
  ΔH: -19.9 kJ/mol
